Like-named read-outs stand apart in the source and are kept apart here. Blank lines part the entries; values can stand above or below the binder they belong to. Where no end group is shown, it is not given here.
Legend:
[1] = biological target: T1, Human TROP2 ECD (31-274 AA), biotinylated (human, UniProt P09758 31-274, biotinylated (site not stated)); experiment: ELISA on immobilized TROP2
T1 construct: also called tumor-associated calcium signal transducer 2; Human TROP2-biotin
T1 sequence: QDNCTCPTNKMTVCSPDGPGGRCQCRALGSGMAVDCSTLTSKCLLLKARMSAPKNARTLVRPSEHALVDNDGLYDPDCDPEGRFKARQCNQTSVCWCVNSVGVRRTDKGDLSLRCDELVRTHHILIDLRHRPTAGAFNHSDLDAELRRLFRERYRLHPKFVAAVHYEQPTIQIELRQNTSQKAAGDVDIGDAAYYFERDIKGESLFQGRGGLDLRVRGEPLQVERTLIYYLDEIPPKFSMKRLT

[2] = biological target: T1, Human TROP2 ECD (31-274 AA), …; experiment: ELISA on immobilized TROP2; remark: listed apart in the source
Human TROP2 Full length [3] = biological target: T2, Human TROP2 Full length (human, UniProt P09758 31-323); experiment: cell-based or functional assay
T2 sequence: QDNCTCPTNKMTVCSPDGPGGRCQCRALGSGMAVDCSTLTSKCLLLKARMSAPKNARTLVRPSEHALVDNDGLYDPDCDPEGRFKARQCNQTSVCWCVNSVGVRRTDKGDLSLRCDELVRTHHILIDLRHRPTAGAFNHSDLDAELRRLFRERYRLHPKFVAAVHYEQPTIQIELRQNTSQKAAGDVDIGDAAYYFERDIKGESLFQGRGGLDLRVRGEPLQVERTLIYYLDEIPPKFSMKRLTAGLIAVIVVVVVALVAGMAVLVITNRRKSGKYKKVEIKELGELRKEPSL

Cyno TROP2 Full length [4] = biological target: T3, Cyno TROP2 Full length (cynomolgus monkey, UniProt P09758 31-323 (human entry)); experiment: cell-based or functional assay
T3 chain: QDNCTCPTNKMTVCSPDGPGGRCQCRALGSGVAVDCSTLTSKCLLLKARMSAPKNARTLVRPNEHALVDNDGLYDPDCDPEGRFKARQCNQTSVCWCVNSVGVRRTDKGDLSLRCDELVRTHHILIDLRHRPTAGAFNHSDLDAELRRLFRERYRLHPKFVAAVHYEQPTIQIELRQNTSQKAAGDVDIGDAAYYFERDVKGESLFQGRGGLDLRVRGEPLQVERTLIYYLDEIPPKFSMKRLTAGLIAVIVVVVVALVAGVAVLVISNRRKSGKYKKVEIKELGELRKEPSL

[5] = biological target: T1, Human TROP2 ECD (31-274 AA), …; experiment: ELISA on immobilized TROP2; remark: listed apart in the source
[6] = biological target: T1, Human TROP2 ECD (31-274 AA), …; experiment: ELISA on immobilized TROP2; remark: listed apart in the source
[7] = biological target: T1, Human TROP2 ECD (31-274 AA), …; experiment: ELISA on immobilized TROP2; remark: listed apart in the source
Human TROP2 Full length [8] = biological target: T2, Human TROP2 Full length; experiment: cell-based or functional assay; remark: listed apart in the source
Cyno TROP2 Full length [9] = biological target: T3, Cyno TROP2 Full length; experiment: cell-based or functional assay
Peptide-68 = biological target: T4, Peptide-68 (cysteine pairing not given here; also: biotinylated, site not given here); experiment: ELISA, TCE on captured biotin-peptide
T4 construct: mask peptide for the CD3 scFv
T4 peptide: DWCWYSPDNDGLCD

Peptide-69 = biological target: T5, Peptide-69 (cysteine pairing not given here; also: biotinylated, site not given here); experiment: ELISA, TCE on captured biotin-peptide
T5 construct: mask peptide for the CD3 scFv
T5 peptide: SECLVDLQSDPCYW

Peptide-70 = biological target: T6, Peptide-70 (cysteine pairing not given here; also: biotinylated, site not given here); experiment: ELISA, TCE on captured biotin-peptide
T6 construct: mask peptide for the CD3 scFv
T6 peptide: YLCGPDGDETLACY

Peptide-71 = biological target: T7, Peptide-71 (cysteine pairing not given here; also: biotinylated, site not given here); experiment: ELISA, TCE on captured biotin-peptide
T7 construct: mask peptide for the CD3 scFv
T7 peptide: VDCGPDGDESILCY

[10] = biological target: T1, Human TROP2 ECD (31-274 AA), …; experiment: ELISA on immobilized TROP2; remark: listed apart in the source
[11] = biological target: T1, Human TROP2 ECD (31-274 AA), …; experiment: ELISA on immobilized TROP2; remark: listed apart in the source

- EC50 (Peptide-68): 0.41 nM
- EC50 (Peptide-69): 0.31 nM
- EC50 (Peptide-70): 0.29 nM
- EC50 (Peptide-71): 0.32 nM
B8: TCE-34 (anti-CD3 scFv P41S, A49G, N87S, L150F, T151S, G163R, P175A, K181T, T200V, A202D, L208I, G211N, L217I, S218T, V220A, P222A, E223D, A226S, E227D; … (bispecific antibody)
light: DIQLTQSPSSLSASVGDRVSITCKASQDVSIAVAWYQQKPGKAPKLLIYSASYRYTGVPDRFSGSGSGTDFTLTISSLQPEDFAVYYCQQHYITPLTFGAGTKVEIKRTVAAPSVFIFPPSDEQLKSGTASVVCLLNNFYPREAKVQWKVDNALQSGNSQESVTEQDSKDSTYSLSSTLTLSKADYEKHKVYACEVTHQGLSSPVTKSFNRGEC
heavy: EVQLVESGGGLVQPGGSLKLSCAASGFTFNKYAMNWVRQASGKGLEWVGRIRSKYNNYATYYADSVKDRFTISRDDSKNTAYLQMNSLKTEDTAVYYCVRHGNFGNSYISYWAYWGQGTLVTVSSGGGGSGGGGSGGGGSQTVVTQEPSFSVSPGGTVTLTCRSSTGAVTSGNYANWVQQTPGQAPRGLIGGTKFLAPGVPDRFSGSILGNKAALTITGAQADDESDYYCVLWYSNRWVFGGGTKLTVLGGGGSQVQLQQSGSELKKPGASVKVSCKASGYTFTNYGMNWVKQAPGQGLKWMGWINTYTGEPTYTDDFKGRFAFSLDTSVSTAYLQISSLKADDTAVYFCARGGFGSSYWYFDVWGQGSLVTVSSASTKGPSVFPLAPSSKSTSGGTAALGCLVKDYFPEPVTVSWNSGALTSGVHTFPAVLQSSGLYSLSSVVTVPSSSLGTQTYICNVNHKPSNTKVDKKVEPKSC
notes: scFv on the Fab heavy chain

- CyTROP2 HEK293 EC50 (pM) (Cyno TROP2 Full length [9]): 0.8 pM
B10: TCE-48 (bispecific antibody)
light: DIQLTQSPSSLSASVGDRVSITCKASQDVSIAVAWYQQKPGKAPKLLIYSASYRYTGVPDRFSGSGSGTDFTLTISSLQPEDFAVYYCQQHYITPLTFGAGTKVEIKRTVAAPSVFIFPPSDEQLKSGTASVVCLLNNFYPREAKVQWKVDNALQSGNSQESVTEQDSKDSTYSLSSTLTLSKADYEKHKVYACEVTHQGLSSPVTKSFNRGEC
heavy: not shown
- H292 Cytotoxicity EC50 (pM) (Human TROP2 Full length [8]): 7.2 pM

- CyTROP2 HEK293 EC50 (pM) (Cyno TROP2 Full length [9]): 3.6 pM
B11: TCE-38 (bispecific antibody)
light: DIQLTQSPSSLSASVGDRVSITCKASQDVSIAVAWYQQKPGKAPKLLIYSASYRYTGVPDRFSGSGSGTDFTLTISSLQPEDFAVYYCQQHYITPLTFGAGTKVEIKRTVAAPSVFIFPPSDEQLKSGTASVVCLLNNFYPREAKVQWKVDNALQSGNSQESVTEQDSKDSTYSLSSTLTLSKADYEKHKVYACEVTHQGLSSPVTKSFNRGEC
heavy: not shown
- HCT116 Cytotoxicity EC50 (pM) (Human TROP2 Full length [8]): > 3000 pM

- EC50 [5]: 0.57 nM
- EC50 [6]: 0.2 nM
- EC50 [7]: 0.16 nM
B12: TCE-8 (anti-CD3 scFv wt; anti-TROP2 D109A) (bispecific antibody)
light: DIQLTQSPSSLSASVGDRVSITCKASQDVSIAVAWYQQKPGKAPKLLIYSASYRYTGVPDRFSGSGSGTDFTLTISSLQPEDFAVYYCQQHYITPLTFGAGTKVEIKRTVAAPSVFIFPPSDEQLKSGTASVVCLLNNFYPREAKVQWKVDNALQSGNSQESVTEQDSKDSTYSLSSTLTLSKADYEKHKVYACEVTHQGLSSPVTKSFNRGEC
heavy: not shown
notes: scFv on the Fab heavy chain

Further lines, the binder ahead of its results:

B1: PC-17 (bispecific antibody)
light: not shown
heavy: GGIDFCAIYQWPVCRSGGGGSGGLSGRSDAGSPLGLAGSGGSQVQLQQSGSELKKPGASVKVSCKASGYTFTNYGMNWVKQAPGQGLKWMGWINTYTGEPTYTDDFKGRFAFSLDTSVSTAYLQISSLKADDTAVYFCARGGFGSSYWYFAVWGQGSLVTVSSASTKGPSVFPLAPSSKSTSGGTAALGCLVKDYFPEPVTVSWNSGALTSGVHTFPAVLQSSGLYSLSSVVTVPSSSLGTQTYICNVNHKPSNTKVDKKVEPKSC
notes: anti-TROP2 D109A
- EC50 [1]: 926 nM

B2: PC-27 (bispecific antibody)
light: not shown
heavy: GGVDFCAIYSWPICKIGGGGSGGLSGRSDAGSPLGLAGSGGSQVQLQQSGSELKKPGASVKVSCKASGYTFTNYGMNWVKQAPGQGLKWMGWINTYTGEPTYTDDFKGRFAFSLDTSVSTAYLQISSLKADDTAVYFCARGGFGSSYWYFAVWGQGSLVTVSSASTKGPSVFPLAPSSKSTSGGTAALGCLVKDYFPEPVTVSWNSGALTSGVHTFPAVLQSSGLYSLSSVVTVPSSSLGTQTYICNVNHKPSNTKVDKKVEPKSC
notes: anti-TROP2 D109A
- EC50 [2]: 214 nM

B3: PC-21 (bispecific antibody)
light: not shown
heavy: GGVDFCALYHWPICYQGGGGSGGLSGRSDAGSPLGLAGSGGSQVQLQQSGSELKKPGASVKVSCKASGYTFTNYGMNWVKQAPGQGLKWMGWINTYTGEPTYTDDFKGRFAFSLDTSVSTAYLQISSLKADDTAVYFCARGGFGSSYWYFAVWGQGSLVTVSSASTKGPSVFPLAPSSKSTSGGTAALGCLVKDYFPEPVTVSWNSGALTSGVHTFPAVLQSSGLYSLSSVVTVPSSSLGTQTYICNVNHKPSNTKVDKKVEPKSC
notes: anti-TROP2 D109A
- EC50 [2]: 168 nM

B4: PC-8 (bispecific antibody)
light: GGVDFCGLYHWPICYQGGGGSGGLSGRSDAGSPLGLAGSGGSDIQLTQSPSSLSASVGDRVSITCKASQDVSIAVAWYQQKPGKAPKLLIYSASYRYTGVPDRFSGSGSGTDFTLTISSLQPEDFAVYYCQQHYITPLTFGAGTKVEIKRTVAAPSVFIFPPSDEQLKSGTASVVCLLNNFYPREAKVQWKVDNALQSGNSQESVTEQDSKDSTYSLSSTLTLSKADYEKHKVYACEVTHQGLSSPVTKSFNRGEC
heavy: not shown
notes: Masked polypeptide complex: anti-TROP2 D109A, anti-CD3 wt
- H292 Cytotoxicity EC50 (pM) (Human TROP2 Full length [3]): 14600 pM
- HCT116 Cytotoxicity EC50 (pM) (Human TROP2 Full length [3]): > 100000 pM
- CyTROP2 HEK293 EC50 (pM) (Cyno TROP2 Full length [4]): 3450 pM
- EC50 [5]: 187 nM
- EC50 [6]: 86 nM
- EC50 [7]: 165 nM

B5: PC-30 (bispecific antibody)
light: GGVDFCGLYHWPICYQGGGGSGGLSGRSDAGSPLGLAGSGGSDIQLTQSPSSLSASVGDRVSITCKASQDVSIAVAWYQQKPGKAPKLLIYSASYRYTGVPDRFSGSGSGTDFTLTISSLQPEDFAVYYCQQHYITPLTFGAGTKVEIKRTVAAPSVFIFPPSDEQLKSGTASVVCLLNNFYPREAKVQWKVDNALQSGNSQESVTEQDSKDSTYSLSSTLTLSKADYEKHKVYACEVTHQGLSSPVTKSFNRGEC
heavy: not shown
notes: anti-TROP2 D109A
- EC50 [7]: 151 nM

B6: TCE-5 (bispecific antibody)
light: not shown
heavy: QVQLQQSGSELKKPGASVKVSCKASGYTFTNYGMNWVKQAPGQGLKWMGWINTYTGEPTYTDDFKGRFAFSLDTSVSTAYLQISSLKADDTAVYFCARGGFGSSYWYFAVWGQGSLVTVSSASTKGPSVFPLAPSSKSTSGGTAALGCLVKDYFPEPVTVSWNSGALTSGVHTFPAVLQSSGLYSLSSVVTVPSSSLGTQTYICNVNHKPSNTKVDKKVEPKSC
- EC50 [5]: 1.43 nM
- EC50 [2]: 0.59 nM
- EC50 [1]: 20.9 nM

B7: TCE-7 (bispecific antibody)
light: DIQLTQSPSSLSASVGDRVSITCKASQDVSIAVAWYQQKPGKAPKLLIYSASYRYTGVPDRFSGSGSGTDFTLTISSLQPEDFAVYYCQQHYITPLTFGAGTKVEIKRTVAAPSVFIFPPSDEQLKSGTASVVCLLNNFYPREAKVQWKVDNALQSGNSQESVTEQDSKDSTYSLSSTLTLSKADYEKHKVYACEVTHQGLSSPVTKSFNRGEC
heavy: not shown
- HCT116 Cytotoxicity EC50 (pM) (Human TROP2 Full length [8]): 113 pM
- CyTROP2 HEK293 EC50 (pM) (Cyno TROP2 Full length [9]): 0.11 pM

B9: TCE-1 (TROP2 T cell engager, anti-CD3 scFv wt, anti-TROP2 wt) (bispecific antibody)
light: DIQLTQSPSSLSASVGDRVSITCKASQDVSIAVAWYQQKPGKAPKLLIYSASYRYTGVPDRFSGSGSGTDFTLTISSLQPEDFAVYYCQQHYITPLTFGAGTKVEIKRTVAAPSVFIFPPSDEQLKSGTASVVCLLNNFYPREAKVQWKVDNALQSGNSQESVTEQDSKDSTYSLSSTLTLSKADYEKHKVYACEVTHQGLSSPVTKSFNRGEC
heavy: not shown
notes: Anti-CD3 scFv joined to the N-terminus of the anti-TROP2 Fab heavy chain; the heavy entry holds scFv, linker and Fab heavy chain; also called TCE-1 (wt)
- EC50 [10]: 0.07 nM
- EC50 [1]: 1.29 nM
- EC50 [11]: 0.06 nM
